For test [1], the target named is CD20 on human cells (Daudi cells, B cells in PBMCs) (human) (UniProt P11836). Nature of the test: cell-based or functional assay.
Test [2] deals with Soluble single-chain human neonatal Fc receptor (scFcRn) (human) (UniProt P55899). Nature of the test: SPR (Biacore X), scFcRn immobilized on CM5 chip, pH 6.0, two-state model; Run 3. Background: Surface plasmon resonance follows binding to a sensor surface in real time, without labels.
Test [3] has the same target. In words: SPR (Biacore X), scFcRn immobilized on CM5 chip, pH 6.0, two-state model; mean of 3 runs.
The target is the same in test [4]. In words: SPR (Biacore X), scFcRn immobilized on CM5 chip, pH 6.0, two-state model; Run 1.
Test [5] shares this target. In words: SPR (Biacore X), scFcRn immobilized on CM5 chip, pH 6.0, two-state model; Run 2.
Test [6] deals with CD22 on human cells (B cells in PBMCs, Daudi, D1-1) (human) (UniProt P20273). Nature of the test: cell-based or functional assay.

Soluble single-chain human neonatal Fc receptor (scFcRn) (human), sequence (P55899 24-297 limits assumed, chain 1 of 2): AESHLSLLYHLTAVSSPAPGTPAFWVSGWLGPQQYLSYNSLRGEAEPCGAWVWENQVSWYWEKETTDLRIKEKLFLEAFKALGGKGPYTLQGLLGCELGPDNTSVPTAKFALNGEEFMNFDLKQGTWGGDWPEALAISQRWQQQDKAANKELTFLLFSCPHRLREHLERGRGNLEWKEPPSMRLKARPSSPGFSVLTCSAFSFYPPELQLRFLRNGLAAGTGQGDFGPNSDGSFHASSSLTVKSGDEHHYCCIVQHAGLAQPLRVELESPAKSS
Soluble single-chain human neonatal Fc receptor (scFcRn) (human), sequence (P61769 21-119 limits assumed, chain 2 of 2, further chain): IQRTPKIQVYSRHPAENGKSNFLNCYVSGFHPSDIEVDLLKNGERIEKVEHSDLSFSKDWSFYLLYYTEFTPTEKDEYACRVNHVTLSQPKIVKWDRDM
CD20 on human cells (Daudi cells, B cells in PBMCs) (human), sequence (P11836 whole entry): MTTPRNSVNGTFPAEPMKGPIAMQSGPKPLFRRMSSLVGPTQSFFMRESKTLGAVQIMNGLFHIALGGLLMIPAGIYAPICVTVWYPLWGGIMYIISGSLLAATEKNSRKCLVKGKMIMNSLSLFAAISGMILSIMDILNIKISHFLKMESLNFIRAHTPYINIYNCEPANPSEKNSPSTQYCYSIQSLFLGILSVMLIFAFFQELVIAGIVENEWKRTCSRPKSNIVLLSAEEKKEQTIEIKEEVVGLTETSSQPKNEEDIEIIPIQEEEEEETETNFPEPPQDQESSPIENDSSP

Consider “20-2b (Fc-IgG-IFNα: veltuzumab with four IFNα2b fused at the heavy chains) (from UniProt P01563 24-188)”, for which the in vitro cytotoxicity in Daudi cells (MTS assay), EC50 in test [1] worked out at 0.0002 nM.

“20*-2b (Ck-IgG-IFNα: veltuzumab with four IFNα2b fused at the light chains) (from UniProt P01563 24-188)” registered an in vitro cytotoxicity in Daudi cells (MTS assay), EC50 in test [1] of 0.0002 nM.

What is called Kd is the concentration at which binding is half-saturated. Turning to “Epratuzumab (humanized anti-CD22 IgG1) (antibody)”, the dissociation constant (Kd) in test [2] was determined as 15.8 nM; in test [3], 16.3 nM; in test [4] it was 15 nM; in test [5], 17.9 nM.

B1: F(ab')2 fragment of epratuzumab (protein, INN chains, looked up)
VH: QVQLVQSGAEVKKPGSSVKVSCKASGYTFTSYWLHWVRQAPGQGLEWIGYINPRNDYTEYNQNFKDKATITADESTNTAYMELSSLRSEDTAFYFCARRDITTFYWGQGTTVTVSS
VL: DIQLTQSPSSLSASVGDRVTMSCKSSQSVLYSANHKNYLAWYQQKPGKAPKLLIYWASTRESGVPSRFSGSGSGTDFTFTISSLQPEDIATYYCHQYLSSWTFGGGTKLEIK
modifications: F(ab')2
The molecule B1 had a surface CD22 on B cells of PBMCs after treatment, % of isotype control MFI (flow cytometry) in test [6] of 45 % control.

For the origin of these results see patent US20160251444A1.
